For orientation: stoichiometry N means a count of units in the complex or per binding partner.

For one substance, stoichiometry N results are on record in article PMC12446779, “Structural basis of transglucosylation in dextran dextrinase, a homolog of anomer-inverting GH15 glucoside hydrolases” (The Journal of Biological Chemistry, 2025).

In this assay the target is Gluconobacter oxydans dextran dextrinase Δ382C (Met1–Ser902) (Gluconobacter oxydans). In words: SEC; gel filtration of purified Δ382C (Fig. S8); conditions not told in the text shown.

Turning to “Gluconobacter oxydans dextran dextrinase Δ382C (Met1–Ser902) (enzyme)”, the stoichiometry N was found to be 2.
